According to article PMC4258470 (Journal of molecular biology, 2014):
Where two headings read alike, the source gives them in different places. Where no end group is shown, it is not given here. [ ]: non-standard residue; d: D form. pS = N[C@@H](COP(=O)(O)O)C(=O)O

B7: TAZ2 domain of mouse CBP (residues 1764-1855) (domain or fragment, UniProt P45481 1764-1855, looked up)
chain: SPQESRRLSIQRCIQSLVHACQCRNANCSLPSCQKMKRVVQHTKGCKRKTNGGCPVCKQLIALCCYHAKHCQENKCPVPFCLNIKHKLRQQQ

Assays:
[1] = target: TAZ1 domain of mouse CBP (residues 345-439) (mouse, UniProt P45481 345-439); test: NMR titration
[2] = target: B7; test: NMR titration
[3] = target: B7; test: fluorescence polarisation
[4] = target: T1, H6GB1-E7(1-98), full length HPV16 E7 fused to His6-GB1, phosphorylated by CKII (HPV16, UniProt P03129 1-98); test: pull-down
T1 sequence: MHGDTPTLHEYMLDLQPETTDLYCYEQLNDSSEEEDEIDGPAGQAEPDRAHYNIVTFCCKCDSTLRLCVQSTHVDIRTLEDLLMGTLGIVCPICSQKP

[5] = target: T2, H6GB1-E7(1-98), full length HPV16 E7 fused to His6-GB1, unphosphorylated (HPV16, UniProt P03129 1-98); test: pull-down
T2 sequence: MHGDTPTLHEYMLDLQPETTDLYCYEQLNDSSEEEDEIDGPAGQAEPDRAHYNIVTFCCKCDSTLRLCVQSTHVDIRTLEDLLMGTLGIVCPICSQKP

[6] = target: B7; test: fluorescence polarisation; remark: listed apart in the source
[7] = target: T3, E7(1-98), full length HPV16 E7, unphosphorylated, MBP removed (HPV16, UniProt P03129 1-98); test: NMR titration
T3 sequence: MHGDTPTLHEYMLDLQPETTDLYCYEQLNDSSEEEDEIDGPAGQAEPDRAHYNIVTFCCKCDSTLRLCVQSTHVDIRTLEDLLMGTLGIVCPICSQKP

[8] = target: T2, H6GB1-E7(1-98), full length HPV16 E7 …; test: pull-down; remark: listed apart in the source

Sequence of TAZ1 domain of mouse CBP (residues 345-439) (P45481 345-439): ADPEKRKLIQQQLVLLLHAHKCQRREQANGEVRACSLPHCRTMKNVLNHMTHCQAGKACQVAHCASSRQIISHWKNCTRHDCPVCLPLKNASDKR

B1: ppE7(1-51), HPV16 E7(1-51) phosphorylated by casein kinase II at serines 31 and 32 (domain or fragment)
chain: MHGDTPTLHEYMLDLQPETTDLYCYEQLND[pS][pS]EEEDEIDGPAGQAEPDRAH
B1 was tested, and the Kd [1] was 7000 ± 300 nM, the “Kd of the primary binding site (Kd1, 2-site model)” value [2] was 4 ± 3 nM and the “Kd of the secondary binding site (Kd2, 2-site model)” value [2] was 33000 ± 2000 nM. It also gave a Kd [3] of 7 ± 3 nM.

B2: H6Rb-AB, His6-tagged central pocket of the retinoblastoma protein (domain or fragment)
chain: HTPVRTVMNTIQQLMMILNSASDQPSENLISYFNNCTVNPKESILKRVKDIGYIFKEKFAKAVGQGCVEIGSQRYKLGVRLYYRVMESMLKSEEERLSIQNFSKLLNDNIFHMSLLACALEVVMATYSRSTSQNLDSGTDLSFPWILNVLNLKAFDFYKVIESFIKAEGNLTREMIKHLERCEHRIMESLAWLSDSPLFDLIKQSKGSGSTSLSLFYKKVYRLAYLRLNTLCERLLSEHPELEHIIWTLFQHTLQNEYELMRDRHLDQIMMCSMYGICKVKNIDLKFKIIVTAYKDLPHAVQETFKRVLIKEEEYDSIIVFYNSVFMQRLKTNILQYAST
B2: binds [4]; binds [5].

B3: ppE7(1-51) C24A,A50C-594, HPV16 E7(1-51) double mutant, phosphorylated and labelled with Alexa Fluor 594 (domain or fragment)
chain: MHGDTPTLHEYMLDLQPETTDLYAYEQLND[pS][pS]EEEDEIDGPAGQAEPDRC(Alexa Fluor 594)H
Binder B3 has a Kd [6] of 28 ± 6 nM.

B4: E7(1-51) from HPV16, unphosphorylated, tag removed (domain or fragment)
chain: MHGDTPTLHEYMLDLQPETTDLYCYEQLNDSSEEEDEIDGPAGQAEPDRAH
B4 showed a Kd [3] of 22 ± 6 nM.

B5: pp6b-E7(1-51), phosphorylated E7(1-51) from low risk HPV6b (domain or fragment)
chain: MHGRHVTLKDIVLDLQPPDPVGLHCYEQLVDSSEDEVDEVDGQDSQPLKQH
modifications: also: phosphorylated by CKII, positions not given here
B5 was tested, and the Kd [3] was 31 ± 3 nM.

B6: 6b-E7(1-51), unphosphorylated E7(1-51) from low risk HPV6b (domain or fragment)
chain: MHGRHVTLKDIVLDLQPPDPVGLHCYEQLVDSSEDEVDEVDGQDSQPLKQH
B6 was tested, and the Kd [3] was 79 ± 10 nM.

B7: binds [7]; binds [8].
